The text below walks through data of patent US20230331821A1.

Holding throughout (conditions): remark: other sources report otherwise
Test [1] deals with T1, SARS-CoV-2 Spike (S) protein, strain BetaCoV/Wuhan-Hu-1/2019, full length (SARS-CoV-2 Wuhan-Hu-1), P0DTC2.
Test [2] deals with T1, SARS-CoV-2 Spike (S) protein, strain …. The experiment in a line: flow cytometry, ExpiCHO cells expressing SARS-CoV-2 S; % positive cells.
Test [3] shares this target. As to the kind of experiment: flow cytometry, ExpiCHO cells transfected with SARS-CoV-2 S; MFI (AF647). A general note: A flow cytometer gives signals particle by particle.
Test [4] shares this target. The source holds these as a separate data set.

Like-named read-outs stand apart in the source and are kept apart here.

B1: S306 (antibody)
heavy: QVQLVQSGAEVKKPGASVKVSCKASTYTFTSFGISWVRQAPGQGLEWMGWITTYSGDTNYAQKFQGRVTMTTDTSTNTAYMELRSLRSDDTAVYYCASDYFDSSGYYHSFDYWGQGTLVTVSS
light: EIVLTQSPDTLSLSPGERATLSCRASQSVSSYLAWYQQRPGQAPRLLIYDASKRATGIPARFSGSGSGTDFTLTISSLEPEDFAVYYCQQRSNWPPGCSFGQGTKVEIK
A word on the EC50 (read off the curve): it is the concentration that produces a half-maximal response. A higher EC50 (read off the curve) goes with a less potent agent. Turning to B1, the EC50 (read off the curve) in test [1] was 0.2 µg/mL; in test [2], 0.001 µg/mL; in test [3], 0.2 µg/mL.

B2: SARS-CoV-2 S306 mAb (B cell supernatant) (antibody, V domains shown)
VH: B1 heavy
VL: B1 light
Turning to B2, in test [4], the POS came to 57.6.
